In the supplement of paper PMC10567573:
± gives the standard deviation.

Assay: protein stability index of a GFP-peptide fusion (GPS, HEK-293T) (PSI 1-6); higher = more stable
[1] = treatment: DMSO, c terminus: a fixed tail appended
[2] = treatment: MLN4924 1 uM, 8 h, c terminus: a fixed tail appended
[3] = treatment: DMSO, c terminus: native
[4] = treatment: MLN4924 1 uM, 8 h, c terminus: native
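Note: 24-mer peptide tiles fused after GFP, lentivirally expressed, FACS-sorted into six equal bins by GFP/DsRed ratio, decoded by Illumina sequencing, PSI is the read-weighted mean bin number.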

Sequence	protein stability index [1]	protein stability index [2]	protein stability index [3]	protein stability index [4]
QPWMVIEGIRQTEYTLTGLKFDMK [FSD1]	2.29 ± 0.35	2.52 ± 0.49	–	–
EREVRAKNGRVDSEDRRSRHCPYL [USP39]	4.39 ± 0.24	4.5 ± 0.32	–	–
LLDVKTRLEQEIATYRRLLEGEDA [KRT16]	4.24 ± 0.15	4.2 ± 0.35	–	–
EDEDIYKLRHDLKKTSITQQPSKH [PLK2]	4.98 ± 0.35	5.1 ± 0.13	–	–
VAACAQTVVSLAAAGQPTPPTSPE [CEBPD]	5 ± 0.78	5.29 ± 0.33	–	–
AEMNRGSNEWKTVVGGAMFFIGFT [COX4I1]	2.95 ± 0.91	3.18 ± 0.44	–	–
VAGGVAVAAIALILGVAFLVRKK [CEND1]	–	–	4.02 ± 0.29	4.16 ± 0.097
CRELGYVEAKSWTASSSYGKGEGP [LOXL2]	3.44 ± 0.41	3.45 ± 0.37	–	–
MAVLKLTDQPPLVQAIFSGDPEEI [ANKRD44]	3.37 ± 0.28	3.43 ± 0.21	–	–
SCSQGSGILHYAHGDSQQTHLLKQ [CRY1]	3.29 ± 0.16	3.31 ± 0.2	–	–
PLLRWVLTLSFLVATVAVGLYAM [HMOX1]	–	–	2.86 ± 0.15	2.57 ± 0.31
QLAHMVKEQEETIQRIDENVLGAQ [STX5]	4.81 ± 0.45	4.96 ± 0.21	–	–
ELKCPVCGSFYREPIILPCSHNLC [TRIM9]	4.1 ± 0.29	4.12 ± 0.32	–	–
MEEEDPMPRQISRQSSVTESTLYP [TPRG1]	5.1 ± 0.32	5.26 ± 0.34	–	–
VKEKGSTLDLSDLEAEKLVMFQRR [SCD]	4.06 ± 0.31	3.97 ± 0.31	–	–
MSRRTRCEDLDELHYQDTDSDVPE [MYBL2]	5.33 ± 0.2	5.59 ± 0.2	–	–
DMAGDWHWALRVTPGLGVVAVLLL [SPNS1]	2.82 ± 0.41	2.5 ± 0.48	–	–
AGGHPAQLGLGRGASTFKEEPQTV [JUNB]	4.511 ± 0.035	4.58 ± 0.32	–	–
TASDGGDPLRSGTVLVSVTVFDAN [PCDHGA10]	2.31 ± 0.52	2.13 ± 0.091	–	–
YIRAPPRSKIYLRFLDYEMQNSNE [NETO1]	2.28 ± 0.16	2.44 ± 0.22	–	–
TDILDLENQRENLEQPFLSVFKKG [PLEKHN1]	4.52 ± 0.07	4.24 ± 0.21	–	–
LGVLHPNTKLRQAERLFENQLVGP [APMAP]	2.57 ± 0.32	3.16 ± 0.24	–	–
TGESSEPEAKVLHTKRLYRAVVEA [SMG5]	3.65 ± 0.33	3.63 ± 0.24	–	–

Sequence	protein stability index [1]	protein stability index [2]	protein stability index [3]	protein stability index [4]
EDHLAVKHFSVEGQLEFRALLFIP [HSP90AB1]	1.57 ± 0.54	–	–	–
NICELAARMLFSAVEWARNIPFFP [NR2F2]	3.61 ± 0.17	3.23 ± 0.06	–	–
VYSDLCEAAEAVRPEERKTCRNPA [ADAMTSL2]	4.83 ± 0.21	4.5 ± 0.49	–	–
FIENNVSKLSLLLNDISRKSEGLS [TRIP13]	2.39 ± 0.35	2.33 ± 0.26	–	–
RDSYGGPPRREPLPSRRDVYLSPR [RBMX]	3.69 ± 0.36	3.97 ± 0.2	–	–
DLYNWEVAIFGPPNTYYEGGYFKA [CDC34]	2.65 ± 0.5	2.51 ± 0.95	–	–
AAQMMDIWVPIKIGALTYFAQADA [ACSBG2]	2.28 ± 0.69	2.85 ± 0.49	–	–
DRGGWGISPRGAGYTFGQDISETF [PPP2CA]	3.21 ± 0.18	3.3 ± 0.34	–	–
LCATHFGEPLEKVASVGNSRPTGQ [KISS1]	3.95 ± 0.4	4.01 ± 0.23	–	–
KQPPWEFLQVLEPGARGLWKPPDI [SPAG8]	2.45 ± 0.089	2.32 ± 0.23	–	–
PPPPPPSRGGPPPPPPPPHNSGPP [WASL]	5.28 ± 0.17	5.3 ± 0.2	–	–
ARELAITDSEHSDAEVSCTDNGTF [RETREG3]	5.56 ± 0.28	5.592 ± 0.033	–	–
VESVFFGGGTPSLASPHTVAAVLE [RSAD1]	2.97 ± 0.18	3.02 ± 0.47	–	–
TEDFWRMLWEHNSTIVVMLTKLRE [PTPRD]	2.21 ± 0.25	2.23 ± 0.27	–	–
DNVRSLKVESGAWIGYEHTSFCGQ [CRYBA1]	3.14 ± 0.2	3.07 ± 0.22	–	–
TTTTFPMSNHTRERVTVAKLTLEN [STK38L]	3.52 ± 0.26	3.5 ± 0.18	–	–
TGLMVSLLCLLHFSIVSVAAHLAL [RTN2]	3.27 ± 0.11	2.87 ± 0.27	–	–
GKSPVNMVTVAMVAGQCEFAHILH [ZNF649]	2.63 ± 0.63	2.34 ± 0.62	–	–
SGLGYIAGSKVKDMAGDWHWALRV [SPNS1]	2.64 ± 0.74	2.38 ± 0.3	–	–
ALVCLLSCLLPSSEAKLYGRCELA [SPACA3]	3.18 ± 0.42	3.04 ± 0.36	–	–
DRGKDSVEILMILFAFMLVYPKEF [PPEF2]	2.97 ± 0.19	2.71 ± 0.61	–	–
EKEDAEKENIEKDEDDVDQELANI [SRPK2]	5.62 ± 0.36	5.61 ± 0.31	–	–
PCGKYNAMVLELLGPSLEDLFDLC [CSNK1G1]	2.69 ± 1.2	2.21 ± 0.5	–	–

Sequence	protein stability index [1]	protein stability index [2]	protein stability index [3]	protein stability index [4]
KLLNITADPMDWSPSNVQKWLLWT [SPDEF]	2.34 ± 0.46	2.22 ± 0.21	–	–
LRQLTAELAEHRCHPVERGIKSKE [PSD2]	3.99 ± 0.26	4.2 ± 0.043	–	–
KMNFIKTYPAHQNRVSAIIFSLAT [WDFY1]	2.65 ± 0.51	2.5 ± 0.37	–	–
HDGHLYLGSFRSPFLCRLSLQAV [APMAP]	–	–	2.82 ± 0.33	3.31 ± 0.55
ANTTPSGKSVSSSSSVETGPSVSE [SPATS1]	5.32 ± 0.23	5.31 ± 0.23	–	–
EVFIEWGISAKVFGATTNYGKDIV [ZBED1]	2.35 ± 0.64	2.44 ± 0.3	–	–
LEHRLNEMERTQAQLRDAVQSLQL [RASAL3]	4.16 ± 0.51	4.22 ± 0.19	–	–
FDSPSLCSSSTRSVLKRPERSQEE [CDC25A]	5.04 ± 0.31	5.12 ± 0.16	–	–
LEQEQEFQVNKLMKKIKKLENDTI [CCDC6]	4.31 ± 0.6	4.19 ± 0.58	–	–
NWFMSFGPEIKLNTSQQGRNQAV [FAM104B]	–	–	2.12 ± 0.49	2.73 ± 1
EIKDKDQLVLRTKEAFDTIQEQKV [SASS6]	4.54 ± 0.25	4.53 ± 0.46	–	–
EQARAYAEKNCMTFFEVSPLCNFN [RAB40C]	2.49 ± 0.31	2.38 ± 0.15	–	–
DCRVDLGSEVYRMLREPAEPVAAE [PDLIM4]	4.67 ± 0.05	4.76 ± 0.092	–	–
MSTNTVGLGLPMSRSQNTDMVQKS [CLINT1]	4.59 ± 0.13	4.7 ± 0.28	–	–
LAEALLHPFFAGLTPEERSFHTSR [CLK3]	2.29 ± 0.2	2.21 ± 0.23	–	–
PKETQPFPKSEQVYLHFLSVVTED [ZNF232]	2.69 ± 0.24	2.99 ± 0.28	–	–
GCLAEAVSVIQSIPIFNETGRFSF [HACD3]	2.91 ± 0.66	2.6 ± 0.77	–	–
TETPLEGDFAWERVRGLGLPKLYL [CDKN1A]	2.18 ± 0.15	2.57 ± 0.34	–	–
DNILSLINVNDLSFVTGSHVGELI [WDR41]	2.36 ± 0.32	2.63 ± 0.31	–	–
FSHTLVSLSLFGCTNIFYEEENPG [ZER1]	2.65 ± 0.12	2.29 ± 0.029	–	–
STQLEMQLEKPKPVKPVTFSTGIK [MNAT1]	4.28 ± 0.16	4.43 ± 0.22	–	–
SSSKRYTMSRSLDGASVNENHEIY [EPB41L3]	4.11 ± 0.63	4 ± 0.45	–	–
AALAVNTSILSRLPPEALTAPSGG [RNF208]	3.44 ± 0.24	3.45 ± 0.14	–	–

Sequence	protein stability index [1]	protein stability index [2]	protein stability index [3]	protein stability index [4]
PVLLLQITVGLVFLCLQYRLRGKL [MOG]	3.23 ± 0.36	3.17 ± 0.25	–	–
MEGQRQESHATLTLAQAHFNNGEY [TTC32]	4.42 ± 0.33	4.39 ± 0.18	–	–
MTPQLFINYKLKSVAHLPWRMLTY [CLPTM1]	2.57 ± 0.71	2.45 ± 0.56	–	–
MSSQVVGIEPLYIKAEPASPDSPK [ESRRA]	4.86 ± 0.12	4.89 ± 0.095	–	–
DPALRRRRRGPRNKKRGWRRLAQE [NOP53]	4.73 ± 0.3	4.92 ± 0.24	–	–
DGAPALCPSPEALSPEPPVYSLQD [PRKX]	5.37 ± 0.098	5.21 ± 0.15	–	–
EKQELQELNDRFANFIEKVRFLEQ [PRPH]	3.08 ± 0.17	3.29 ± 0.34	–	–
EPPTEAASREENQAGPEATTSDPQ [PALM]	5.61 ± 0.26	5.49 ± 0.3	–	–
QDSKEMKQLLDSKIGFEIGIENEE [ZNF449]	5.35 ± 0.37	5.37 ± 0.47	–	–
GGQCCRRQDSPSPDFYKQSSPNLQ [PCDHGC5]	3.77 ± 0.33	3.78 ± 0.23	–	–
SHHHHQSRGACTSHDPQSSRGSRR [KCNA4]	5.11 ± 0.26	5.13 ± 0.15	–	–
DSLPMDAYTHGCILHPELTVDSMI [GDAP1]	3.29 ± 0.26	3.47 ± 0.11	–	–
TDRDEGANGEVTYSFRKLPDTQLL [PCDHGA10]	4.44 ± 0.13	4.41 ± 0.22	–	–
MNCLPSNRTLWRLDLAGNNIPGDV [LRRC45]	2.75 ± 0.37	2.86 ± 0.4	–	–
QGPMSQRRENYGVPPRRATISSWR [RBMY1A1]	3.68 ± 0.22	3.57 ± 0.36	–	–
ELYGLALRFFKEKDGKAFHPTYEE [ACBD3]	2.13 ± 0.26	2.19 ± 0.35	–	–
EFLGNRSVILNHMAREHAFNIGLP [ZNF277]	2.21 ± 0.19	2.26 ± 0.2	–	–
WVKGSVPPPLDQYVKFDAVSGDYY [CLPTM1]	2.79 ± 0.24	2.72 ± 0.28	–	–
RGGGDPWTNGSGLALCQRYYHRGH [MCOLN1]	3.08 ± 0.23	3.2 ± 0.28	–	–
RPWRAGVLAEGDNASRSLYPDAED [PSD2]	5.16 ± 0.2	5.05 ± 0.16	–	–
